From the supplement of paper PMC10065799, “High-throughput profiling of sequence recognition by tyrosine kinases and SH2 domains using bacterial peptide display” (eLife, 2023)

Assays:
EPHB2 = EPHB2 (UniProt P29323); experiment: phosphorylation enrichment, bacterial display (enrichment ratio); higher = better substrate or ligand; peptides without Tyr show the background
Jak2 = Jak2 (UniProt O60674); experiment: as above
Fer (mouse) = experiment: as above
FGFR1 = FGFR1 (UniProt P11362); experiment: as above
MERTK = MERTK (UniProt Q12866); experiment: as above
AncSZ = experiment: as above
Fyn = Fyn (UniProt P06241); experiment: as above
Fes = Fes (UniProt P07332); experiment: as above
EPHB1 = EPHB1 (UniProt P54762); experiment: as above
FGFR3 = FGFR3 (UniProt P22607); experiment: as above
Hck = Hck (UniProt P08631); experiment: as above
c-Src = experiment: as above
c-Abl (mouse) = experiment: as above
Grb2 SH2 = Grb2 SH2 (UniProt P62993); experiment: SH2 binding enrichment of the phosphorylated peptide, bacterial display (enrichment ratio); higher = better substrate or ligand; peptides without Tyr show the background
SHP2-C SH2 = experiment: as above
c-Src SH2 = experiment: as above
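Throughout, for SH2 binding enrichment of the phosphorylated peptide, bacterial display: peptide library displayed on the E. coli surface as eCPX fusions, selected cells deep-sequenced, score is each peptide's frequency after selection divided by its frequency in the input.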
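Throughout, for phosphorylation enrichment, bacterial display: 11-residue human phosphosite peptides and single-mutation variants displayed on the E. coli surface, counted by deep sequencing, each peptide's frequency after selection divided by its frequency in the unselected input library; frequency after pTyr selection over input frequency; kinase dosed for 20-30% of maximal phosphorylation in three min.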

Sequence of Hck (P08631 whole entry, looked up): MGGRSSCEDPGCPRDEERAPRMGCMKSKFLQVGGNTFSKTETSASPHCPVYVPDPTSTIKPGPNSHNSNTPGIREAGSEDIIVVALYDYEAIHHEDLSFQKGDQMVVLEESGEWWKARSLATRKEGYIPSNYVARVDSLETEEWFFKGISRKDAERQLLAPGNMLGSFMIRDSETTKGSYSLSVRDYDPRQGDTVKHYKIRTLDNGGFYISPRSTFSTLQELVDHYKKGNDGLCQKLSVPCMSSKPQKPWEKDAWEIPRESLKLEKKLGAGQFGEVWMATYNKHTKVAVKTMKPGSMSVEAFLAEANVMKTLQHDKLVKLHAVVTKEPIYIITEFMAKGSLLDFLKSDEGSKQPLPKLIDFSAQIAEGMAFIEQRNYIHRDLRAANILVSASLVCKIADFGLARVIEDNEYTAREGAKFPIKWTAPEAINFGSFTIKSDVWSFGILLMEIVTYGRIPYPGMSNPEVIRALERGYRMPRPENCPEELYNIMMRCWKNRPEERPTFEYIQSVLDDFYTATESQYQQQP
Sequence of MERTK (Q12866 whole entry, looked up): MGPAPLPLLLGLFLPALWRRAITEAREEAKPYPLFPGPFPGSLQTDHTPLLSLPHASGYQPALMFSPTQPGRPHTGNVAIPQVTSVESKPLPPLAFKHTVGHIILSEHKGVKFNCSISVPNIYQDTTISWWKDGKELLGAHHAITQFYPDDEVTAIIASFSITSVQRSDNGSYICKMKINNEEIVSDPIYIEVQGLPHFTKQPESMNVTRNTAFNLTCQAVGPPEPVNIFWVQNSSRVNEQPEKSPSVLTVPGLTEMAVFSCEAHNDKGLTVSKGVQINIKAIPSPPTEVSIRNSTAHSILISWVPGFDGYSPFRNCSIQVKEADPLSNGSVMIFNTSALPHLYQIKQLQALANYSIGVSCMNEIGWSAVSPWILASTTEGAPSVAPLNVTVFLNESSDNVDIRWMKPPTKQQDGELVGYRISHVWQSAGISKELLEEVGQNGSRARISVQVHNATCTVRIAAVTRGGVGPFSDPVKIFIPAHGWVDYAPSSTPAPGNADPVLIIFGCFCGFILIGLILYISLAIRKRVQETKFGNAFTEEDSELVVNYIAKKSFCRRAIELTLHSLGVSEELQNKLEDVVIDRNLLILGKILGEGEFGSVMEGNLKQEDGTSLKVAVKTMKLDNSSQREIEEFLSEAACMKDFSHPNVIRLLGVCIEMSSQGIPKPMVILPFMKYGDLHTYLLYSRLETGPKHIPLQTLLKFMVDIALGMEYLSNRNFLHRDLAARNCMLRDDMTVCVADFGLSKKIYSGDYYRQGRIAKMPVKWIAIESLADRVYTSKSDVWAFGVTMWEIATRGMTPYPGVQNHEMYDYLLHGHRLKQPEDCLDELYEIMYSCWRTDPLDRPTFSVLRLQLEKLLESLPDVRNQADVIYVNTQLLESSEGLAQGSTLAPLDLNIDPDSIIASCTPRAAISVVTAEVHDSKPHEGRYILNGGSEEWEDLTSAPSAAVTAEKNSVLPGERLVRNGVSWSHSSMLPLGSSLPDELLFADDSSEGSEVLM
Sequence of FGFR3 (P22607 whole entry, looked up): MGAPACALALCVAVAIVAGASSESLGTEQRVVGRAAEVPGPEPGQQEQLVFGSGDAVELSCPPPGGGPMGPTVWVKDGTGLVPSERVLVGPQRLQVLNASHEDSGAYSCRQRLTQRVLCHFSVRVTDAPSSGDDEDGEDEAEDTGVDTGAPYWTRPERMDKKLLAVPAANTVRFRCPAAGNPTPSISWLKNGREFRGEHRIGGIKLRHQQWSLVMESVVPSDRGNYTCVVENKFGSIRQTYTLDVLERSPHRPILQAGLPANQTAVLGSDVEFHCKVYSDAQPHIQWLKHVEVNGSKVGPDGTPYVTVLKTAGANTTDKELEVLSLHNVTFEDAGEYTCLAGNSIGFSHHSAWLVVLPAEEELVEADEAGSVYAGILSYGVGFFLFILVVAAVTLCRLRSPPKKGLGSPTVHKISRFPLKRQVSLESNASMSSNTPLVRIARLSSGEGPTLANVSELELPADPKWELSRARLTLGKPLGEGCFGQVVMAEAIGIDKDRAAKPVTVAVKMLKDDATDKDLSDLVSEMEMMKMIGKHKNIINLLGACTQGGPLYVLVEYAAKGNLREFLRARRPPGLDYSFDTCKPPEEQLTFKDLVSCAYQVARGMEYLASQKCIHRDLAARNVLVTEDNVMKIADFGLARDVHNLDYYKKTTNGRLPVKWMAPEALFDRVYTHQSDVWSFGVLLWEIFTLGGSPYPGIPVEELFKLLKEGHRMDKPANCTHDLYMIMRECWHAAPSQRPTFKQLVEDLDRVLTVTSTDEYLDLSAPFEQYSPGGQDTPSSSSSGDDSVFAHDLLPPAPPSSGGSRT
Sequence of FGFR1 (P11362 whole entry, looked up): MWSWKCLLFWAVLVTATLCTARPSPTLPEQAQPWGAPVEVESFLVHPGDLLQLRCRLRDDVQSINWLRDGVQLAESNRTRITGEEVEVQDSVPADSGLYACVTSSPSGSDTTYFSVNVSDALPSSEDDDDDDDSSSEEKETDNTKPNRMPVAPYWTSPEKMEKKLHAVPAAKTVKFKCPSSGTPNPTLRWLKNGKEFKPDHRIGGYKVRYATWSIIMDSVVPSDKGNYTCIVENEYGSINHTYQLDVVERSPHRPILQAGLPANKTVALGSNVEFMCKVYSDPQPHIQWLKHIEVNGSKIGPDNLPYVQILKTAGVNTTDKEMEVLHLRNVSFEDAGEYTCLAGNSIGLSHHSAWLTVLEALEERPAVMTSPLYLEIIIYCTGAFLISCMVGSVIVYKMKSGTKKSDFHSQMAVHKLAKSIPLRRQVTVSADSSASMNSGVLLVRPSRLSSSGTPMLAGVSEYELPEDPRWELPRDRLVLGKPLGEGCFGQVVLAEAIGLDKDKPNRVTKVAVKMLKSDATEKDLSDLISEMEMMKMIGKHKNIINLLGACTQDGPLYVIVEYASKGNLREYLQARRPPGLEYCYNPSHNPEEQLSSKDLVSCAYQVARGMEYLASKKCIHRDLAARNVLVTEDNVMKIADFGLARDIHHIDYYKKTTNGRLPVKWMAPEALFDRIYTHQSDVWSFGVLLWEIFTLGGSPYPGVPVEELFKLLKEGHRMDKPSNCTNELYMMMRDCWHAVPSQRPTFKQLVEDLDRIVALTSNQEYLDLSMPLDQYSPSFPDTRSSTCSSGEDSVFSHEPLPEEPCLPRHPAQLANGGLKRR
Sequence of EPHB1 (P54762 whole entry, looked up): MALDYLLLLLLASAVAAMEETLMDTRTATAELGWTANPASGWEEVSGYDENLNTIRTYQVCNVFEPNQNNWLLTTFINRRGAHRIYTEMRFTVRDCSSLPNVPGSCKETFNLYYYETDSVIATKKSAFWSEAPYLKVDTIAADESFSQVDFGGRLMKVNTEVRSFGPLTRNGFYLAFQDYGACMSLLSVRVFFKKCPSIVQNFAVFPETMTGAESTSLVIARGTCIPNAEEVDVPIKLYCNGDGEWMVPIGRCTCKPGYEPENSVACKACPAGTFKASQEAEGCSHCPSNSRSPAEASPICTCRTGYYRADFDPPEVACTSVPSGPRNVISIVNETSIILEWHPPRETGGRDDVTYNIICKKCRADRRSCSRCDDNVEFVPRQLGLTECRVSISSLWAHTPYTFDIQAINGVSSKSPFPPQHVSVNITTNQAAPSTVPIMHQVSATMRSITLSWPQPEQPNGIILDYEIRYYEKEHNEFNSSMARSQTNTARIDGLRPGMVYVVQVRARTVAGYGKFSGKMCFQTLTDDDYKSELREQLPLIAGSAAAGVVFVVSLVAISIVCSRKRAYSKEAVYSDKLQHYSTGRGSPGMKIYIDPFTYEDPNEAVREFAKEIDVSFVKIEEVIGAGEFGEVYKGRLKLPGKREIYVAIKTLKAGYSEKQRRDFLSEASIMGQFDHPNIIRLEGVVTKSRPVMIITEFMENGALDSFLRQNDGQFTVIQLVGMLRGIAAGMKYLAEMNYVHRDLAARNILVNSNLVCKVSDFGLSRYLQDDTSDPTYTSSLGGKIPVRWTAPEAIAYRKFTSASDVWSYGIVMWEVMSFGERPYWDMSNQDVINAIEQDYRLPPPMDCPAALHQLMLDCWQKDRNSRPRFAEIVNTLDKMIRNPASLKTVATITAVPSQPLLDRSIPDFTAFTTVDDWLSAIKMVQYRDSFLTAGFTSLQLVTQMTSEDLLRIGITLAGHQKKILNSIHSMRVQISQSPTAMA
Sequence of Fes (P07332 whole entry, looked up): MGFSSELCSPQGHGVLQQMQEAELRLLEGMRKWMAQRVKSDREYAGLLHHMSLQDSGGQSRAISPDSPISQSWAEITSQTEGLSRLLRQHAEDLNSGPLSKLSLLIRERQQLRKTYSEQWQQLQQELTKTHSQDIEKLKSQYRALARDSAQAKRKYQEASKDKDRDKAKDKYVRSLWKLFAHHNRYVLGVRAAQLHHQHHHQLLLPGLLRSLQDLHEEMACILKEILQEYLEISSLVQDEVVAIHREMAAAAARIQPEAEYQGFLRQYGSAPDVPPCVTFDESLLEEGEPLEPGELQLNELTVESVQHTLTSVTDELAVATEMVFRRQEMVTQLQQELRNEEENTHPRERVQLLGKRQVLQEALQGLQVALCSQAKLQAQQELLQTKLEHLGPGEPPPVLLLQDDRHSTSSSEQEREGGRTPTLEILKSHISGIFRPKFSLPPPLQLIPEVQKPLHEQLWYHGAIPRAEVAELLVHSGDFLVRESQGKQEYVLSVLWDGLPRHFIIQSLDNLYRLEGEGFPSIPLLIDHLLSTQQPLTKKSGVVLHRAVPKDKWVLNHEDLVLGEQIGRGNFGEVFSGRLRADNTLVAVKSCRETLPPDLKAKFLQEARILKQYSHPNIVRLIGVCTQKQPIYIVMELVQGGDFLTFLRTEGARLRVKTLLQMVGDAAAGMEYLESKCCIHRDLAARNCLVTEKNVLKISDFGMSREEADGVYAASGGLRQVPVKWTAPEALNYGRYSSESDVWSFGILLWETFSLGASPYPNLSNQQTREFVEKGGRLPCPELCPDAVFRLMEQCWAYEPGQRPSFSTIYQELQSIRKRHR

Sequence	SH2 binding enrichment (Grb2 SH2)	SH2 binding enrichment (SHP2-C SH2)	SH2 binding enrichment (c-Src SH2)	phosphorylation enrichment (EPHB2)	phosphorylation enrichment (Jak2)	phosphorylation enrichment (Fer (mouse))	phosphorylation enrichment (FGFR1)	phosphorylation enrichment (MERTK)	phosphorylation enrichment (AncSZ)	phosphorylation enrichment (Fyn)	phosphorylation enrichment (Fes)	phosphorylation enrichment (EPHB1)	phosphorylation enrichment (FGFR3)	phosphorylation enrichment (Hck)	phosphorylation enrichment (c-Src)	phosphorylation enrichment (c-Abl (mouse))
GGQVFYNSEYG [FLT4_Y1333]	0.648	0.707	0.435	0.442	0.751	0.36	0.376	0.467	0.719	0.456	0.779	0.402	0.558	0.462	0.521	0.497
DSNPIYSQIWS [FCRL3_Y662]	1.1	0.89	0.851	21.2	1.18	19.4	6.65	11.8	1.88	12.1	14.4	20.2	5.05	12	8.52	14.1
RENGPYYASYP [GDAP2_Y487_T489A]	0.822	1.13	0.705	5.74	0.661	0.691	2.29	7.74	1.04	8.25	0.869	1.58	1.92	5.46	7.26	1.94
RLLVVYPWTER [HBB_Y36_Q40E]	2.1	2.29	1.55	0.572	1.03	0.37	0.513	0.324	1.16	0.472	1.21	0.345	0.58	0.618	0.52	0.612
GGGGSYNVFGN [HNRNPA1_Y312_D314V]	0.833	0.747	0.52	0.523	0.723	0.419	0.467	0.457	0.65	0.441	0.742	0.404	0.515	0.424	0.488	0.652
LDAFIYDAALL [GRIN2A_Y730_V734L]	0.735	0.546	0.581	2.32	1.33	14.9	0.55	2.28	1.44	8.97	1.86	2.23	0.902	7.57	7.16	4.39
KLQKKYGPISS [CYP17A1_Y60_Y64S]	0.873	0.594	0.554	0.317	0.364	0.289	0.338	0.378	0.381	0.343	0.553	0.32	0.493	0.375	0.364	0.399
GGTTLYPGIAD [ACTC1_Y308_M307L]	0.762	0.648	0.453	0.531	0.553	0.431	0.537	0.381	0.587	0.458	0.765	0.446	0.548	0.442	0.363	0.484
AVNDFYAAKKT [CCDC178_Y422]	1.07	0.87	0.457	0.372	0.548	0.381	0.648	0.449	0.629	0.508	0.703	0.464	0.551	0.5	0.429	0.61
IKEFKYGIEEH [GJA1_Y137_K134E]	0.856	0.489	0.457	0.464	0.581	0.402	0.508	0.342	0.836	0.349	0.918	0.39	0.684	0.42	0.365	0.612
GILDVYIFLGP [GAA_Y340]	0.768	0.79	0.44	0.792	1.21	0.381	0.864	0.701	1.27	0.505	1.44	0.787	1.02	0.676	0.7	0.866
HSFQCYGQNEA [ENTPD3_Y262_R264Q]	0.968	0.62	0.596	0.452	1.21	0.382	0.604	0.422	0.996	0.535	1	0.551	0.71	0.701	0.441	0.793
TIQDAYMHITS [ADCY10_Y318_A313T]	0.902	0.895	1.26	0.398	0.676	0.416	0.624	0.529	0.7	0.51	0.799	0.479	0.43	0.496	0.451	0.525
GKSDPYHATTG [GJA1_Y247_S251T]	0.771	0.778	0.416	0.254	0.41	0.38	0.374	0.319	0.396	0.345	0.506	0.287	0.409	0.413	0.361	0.476

Now from value to sequence, other results behind:

SH2 binding enrichment (Grb2 SH2)	SH2 binding enrichment (SHP2-C SH2)	SH2 binding enrichment (c-Src SH2)	Sequence	phosphorylation enrichment (EPHB2)	phosphorylation enrichment (Jak2)	phosphorylation enrichment (Fer (mouse))	phosphorylation enrichment (FGFR1)	phosphorylation enrichment (MERTK)	phosphorylation enrichment (AncSZ)	phosphorylation enrichment (Fyn)	phosphorylation enrichment (Fes)	phosphorylation enrichment (EPHB1)	phosphorylation enrichment (FGFR3)	phosphorylation enrichment (Hck)	phosphorylation enrichment (c-Src)	phosphorylation enrichment (c-Abl (mouse))
1.01	1.08	0.808	QQLVAYFSKHT [SRC_Y232_A237T_YF]	0.724	1.75	0.595	0.562	0.382	0.898	0.629	1.09	0.676	0.942	0.699	0.513	0.646
0.944	0.924	0.369	QSAGQYSSQGL [TNNI3K_Y788]	0.414	0.636	0.622	0.387	0.584	0.703	0.459	1.15	0.95	0.542	0.855	0.418	0.777
0.773	0.644	0.525	TNFCLYLRSLE [MTM1_Y71_R69C_YF]	0.759	1.7	0.847	0.512	0.492	1.62	0.594	1.69	0.895	0.995	0.567	0.612	1.27
0.859	0.789	0.446	EERNPYFSSAR [MCCC2_Y520_G517R_YF]	0.392	0.779	0.36	0.486	0.407	0.769	0.475	0.752	0.466	0.404	0.659	1.08	0.624
0.613	0.48	0.322	LECEWYKNGVK [TTN_Y2112_P2107L]	0.923	1.39	0.771	0.744	0.921	2.15	0.619	2.16	1.36	1.01	0.931	0.576	1.16
1.11	0.835	0.483	VEDPEYAVTQL [STOML2_Y124]	0.531	0.893	0.709	0.477	0.409	1.24	0.398	0.997	0.466	0.516	0.463	0.549	0.597
0.89	0.506	0.55	VERRVYAEDPY [PCCA_Y401_C398R]	0.507	0.663	0.424	0.631	0.46	0.826	0.764	0.962	0.459	0.664	0.566	0.681	0.566
0.729	0.596	0.397	QELRRYLESGV [MICA_Y194_K196E]	1.54	1.16	0.486	0.62	0.49	0.597	0.772	0.812	0.749	0.662	0.489	0.465	0.616
0.842	0.681	0.505	DRLASDLDKVR [KRT10_Y160_Y160D]	0.471	0.537	0.416	0.439	0.362	0.603	0.448	0.661	0.372	0.469	0.425	0.363	0.443
0.974	0.803	1.43	LRYDSYWSYCN [SLC20A2_Y433_S434W]	9.36	2.4	1.51	3.88	5.37	2.25	5.26	1.53	7.63	3.72	4.95	4.87	1.68
0.791	0.533	0.579	SGETKYNPTEA [NBEAL2_Y2748_E2747K]	0.476	0.848	0.539	0.502	0.449	0.767	0.459	0.868	0.558	0.594	0.613	0.537	0.624
0.789	1.02	0.524	IENPQYFSDAC [NTRK1_Y496]	0.616	1.14	0.524	0.673	0.546	1.13	0.516	1.24	0.648	0.962	0.626	0.542	1.01
0.971	0.874	2.13	PSDSGYSFETI [MAP1B_Y1921_YF]	1.1	1.25	0.608	0.633	0.641	1.05	0.703	1.25	0.639	1.05	0.635	0.405	0.763
0.85	0.558	0.509	DAANNYARGHY [TUBA3E_Y103_S101N]	0.37	0.546	0.355	0.469	0.528	0.691	0.421	0.575	0.412	0.45	0.436	0.442	0.559
1.02	1.07	0.589	FSSLGYPLPEG [ZSWIM4_Y87_P89L_YF]	0.446	0.635	0.394	0.413	0.519	0.747	0.446	0.722	0.372	0.472	0.525	0.42	0.501
0.735	0.634	0.59	HYECKYVINAI [MAOA_Y268]	0.788	0.95	0.506	0.557	0.66	1.38	0.507	1.61	0.841	0.957	0.657	0.859	0.86
0.604	0.599	0.384	GSIQQYTYKQE [PRG4_Y1271_I1272T]	0.494	0.806	0.437	0.453	0.374	0.773	0.37	0.94	0.45	0.559	0.483	0.444	0.731
1.34	0.741	0.806	VMIYAYLLHRG [PTEN_Y138_C136Y]	0.455	0.733	0.371	0.351	0.591	0.821	0.443	0.856	0.479	0.703	0.697	0.46	0.748
0.76	0.626	0.474	QTLEAYIRCNK [SPAST_Y604_W607C]	0.738	1.44	0.452	0.559	0.624	1.12	0.438	1.36	0.906	1.1	0.951	0.372	0.887
